# IntAct's records for PubMed 16980972
# Molecular target: asf1a_human ASF1A (UniProt Q9Y294)
# Sequence (Q9Y294 whole entry): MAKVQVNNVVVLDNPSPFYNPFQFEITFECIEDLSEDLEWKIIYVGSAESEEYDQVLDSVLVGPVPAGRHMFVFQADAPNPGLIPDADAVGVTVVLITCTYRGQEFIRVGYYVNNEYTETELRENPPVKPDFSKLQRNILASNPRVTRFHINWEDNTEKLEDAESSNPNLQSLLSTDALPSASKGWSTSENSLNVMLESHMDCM
substance,measurement,value
Chromatin assembly factor 1 subunit B (Homo sapiens) (from UniProt Q13112) R483A;R499A,effect of a mutation on the interaction,disrupting interaction
